The labels stand for the following.
T1: EsCas13d, nuclease-dead (Eubacterium siraeum, UniProt B0MS50, R295A;H300A;R849A;H854A)
T1 sequence: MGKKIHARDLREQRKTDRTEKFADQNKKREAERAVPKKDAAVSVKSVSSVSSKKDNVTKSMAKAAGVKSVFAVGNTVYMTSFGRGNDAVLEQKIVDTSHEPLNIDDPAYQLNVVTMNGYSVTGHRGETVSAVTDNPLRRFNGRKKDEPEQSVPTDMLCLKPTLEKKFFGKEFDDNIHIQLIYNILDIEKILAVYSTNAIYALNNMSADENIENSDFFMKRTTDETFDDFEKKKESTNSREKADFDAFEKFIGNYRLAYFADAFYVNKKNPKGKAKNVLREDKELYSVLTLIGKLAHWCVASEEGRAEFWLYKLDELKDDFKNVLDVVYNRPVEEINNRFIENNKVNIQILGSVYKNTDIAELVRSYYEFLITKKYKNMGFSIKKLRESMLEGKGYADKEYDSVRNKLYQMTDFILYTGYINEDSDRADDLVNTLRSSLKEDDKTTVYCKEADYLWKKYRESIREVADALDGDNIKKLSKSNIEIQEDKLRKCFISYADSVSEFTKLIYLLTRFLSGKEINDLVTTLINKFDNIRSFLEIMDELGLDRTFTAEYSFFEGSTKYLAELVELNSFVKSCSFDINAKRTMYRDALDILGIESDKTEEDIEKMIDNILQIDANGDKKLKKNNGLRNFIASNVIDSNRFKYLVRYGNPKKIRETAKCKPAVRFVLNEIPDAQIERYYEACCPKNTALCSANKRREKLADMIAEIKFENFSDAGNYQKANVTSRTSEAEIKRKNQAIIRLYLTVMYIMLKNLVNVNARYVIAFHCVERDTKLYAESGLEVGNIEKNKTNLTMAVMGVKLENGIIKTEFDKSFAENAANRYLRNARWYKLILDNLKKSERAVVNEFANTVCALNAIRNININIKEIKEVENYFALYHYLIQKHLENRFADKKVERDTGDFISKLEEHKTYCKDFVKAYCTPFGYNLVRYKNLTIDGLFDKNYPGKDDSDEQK

B1: target 2 MT 5'PFS AGA 3'PFS CUA (mixed)
RNA 1: CACCCGUGCAAAAUUGCAGGGGUCUAAAACCUUCUCCAAAUUGUUUCAUCCU
RNA 2: GGGAAUGGAUCCACAUCUACGAAUUCAGAAGGAUGAAACAAUUUGGAGAAGCUAAGAUCGGAAGAGCACACGU
B2: target 2 MT 5'PFS AGA 3'PFS CUC (mixed)
RNA 1: B1 RNA 1
RNA 2: B1 RNA 2 with A54C
B3: target 2 MT 5'PFS GCC 3'PFS CAA (mixed)
RNA 1: B1 RNA 1
RNA 2: B1 RNA 2 with A27G, G28C, A29C, U53A
B4: target 2 MT 5'PFS UCG 3'PFS AAA (mixed)
RNA 1: B1 RNA 1
RNA 2: B1 RNA 2 with A27U, G28C, A29G, C52A, U53A
B5: target 2 MT 5'PFS GAG 3'PFS UCC (mixed)
RNA 1: B1 RNA 1
RNA 2: B1 RNA 2 with A27G, G28A, A29G, C52U, U53C, A54C
B6: target 2 MT 5'PFS GUC 3'PFS AAA (mixed)
RNA 1: B1 RNA 1
RNA 2: B1 RNA 2 with A27G, G28U, A29C, C52A, U53A
B7: target 2 MT 5'PFS GCC 3'PFS CAG (mixed)
RNA 1: B1 RNA 1
RNA 2: B1 RNA 2 with A27G, G28C, A29C, U53A, A54G
B8: target 2 MT 5'PFS UGU 3'PFS AGC (mixed)
RNA 1: B1 RNA 1
RNA 2: B1 RNA 2 with A27U, A29U, C52A, U53G, A54C
B9: target 2 MT 5'PFS GUG 3'PFS CAA (mixed)
RNA 1: B1 RNA 1
RNA 2: B1 RNA 2 with A27G, G28U, A29G, U53A
B10: target 2 MT 5'PFS UAA 3'PFS CAC (mixed)
RNA 1: B1 RNA 1
RNA 2: B1 RNA 2 with A27U, G28A, U53A, A54C
B11: target 2 MT 5'PFS AUG 3'PFS ACC (mixed)
RNA 1: B1 RNA 1
RNA 2: B1 RNA 2 with G28U, A29G, C52A, U53C, A54C
B12: target 2 MT 5'PFS GCC 3'PFS CAC (mixed)
RNA 1: B1 RNA 1
RNA 2: B1 RNA 2 with A27G, G28C, A29C, U53A, A54C
B13: target 2 MT 5'PFS CUG 3'PFS CGU (mixed)
RNA 1: B1 RNA 1
RNA 2: B1 RNA 2 with A27C, G28U, A29G, U53G, A54U
B14: target 2 MT 5'PFS GCC 3'PFS CAU (mixed)
RNA 1: B1 RNA 1
RNA 2: B1 RNA 2 with A27G, G28C, A29C, U53A, A54U
B15: target 2 MT 5'PFS AUG 3'PFS ACU (mixed)
RNA 1: B1 RNA 1
RNA 2: B1 RNA 2 with G28U, A29G, C52A, U53C, A54U
B16: target 2 MT 5'PFS GAG 3'PFS UCA (mixed)
RNA 1: B1 RNA 1
RNA 2: B1 RNA 2 with A27G, G28A, A29G, C52U, U53C
B17: target 2 MT 5'PFS UUU 3'PFS AUA (mixed)
RNA 1: B1 RNA 1
RNA 2: B1 RNA 2 with A27U, G28U, A29U, C52A
B18: target 2 MT 5'PFS UAA 3'PFS CAU (mixed)
RNA 1: B1 RNA 1
RNA 2: B1 RNA 2 with A27U, G28A, U53A, A54U
B19: target 2 MT 5'PFS CAG 3'PFS AUA (mixed)
RNA 1: B1 RNA 1
RNA 2: B1 RNA 2 with A27C, G28A, A29G, C52A
B20: target 2 MT 5'PFS UGU 3'PFS AGU (mixed)
RNA 1: B1 RNA 1
RNA 2: B1 RNA 2 with A27U, A29U, C52A, U53G, A54U
B21: target 2 MT 5'PFS UCG 3'PFS AAU (mixed)
RNA 1: B1 RNA 1
RNA 2: B1 RNA 2 with A27U, G28C, A29G, C52A, U53A, A54U
B22: target 2 MT 5'PFS UUU 3'PFS AUC (mixed)
RNA 1: B1 RNA 1
RNA 2: B1 RNA 2 with A27U, G28U, A29U, C52A, A54C
B23: target 2 MT 5'PFS GUC 3'PFS AAG (mixed)
RNA 1: B1 RNA 1
RNA 2: B1 RNA 2 with A27G, G28U, A29C, C52A, U53A, A54G
B24: target 2 MT 5'PFS UCG 3'PFS AAG (mixed)
RNA 1: B1 RNA 1
RNA 2: B1 RNA 2 with A27U, G28C, A29G, C52A, U53A, A54G
B25: target 2 MT 5'PFS UGC 3'PFS GGC (mixed)
RNA 1: B1 RNA 1
RNA 2: B1 RNA 2 with A27U, A29C, C52G, U53G, A54C
B26: target 2 MT 5'PFS GUC 3'PFS AAC (mixed)
RNA 1: B1 RNA 1
RNA 2: B1 RNA 2 with A27G, G28U, A29C, C52A, U53A, A54C
B27: target 2 MT 5'PFS UUU 3'PFS AUU (mixed)
RNA 1: B1 RNA 1
RNA 2: B1 RNA 2 with A27U, G28U, A29U, C52A, A54U
B28: target 2 MT 5'PFS AUG 3'PFS ACA (mixed)
RNA 1: B1 RNA 1
RNA 2: B1 RNA 2 with G28U, A29G, C52A, U53C
B29: target 2 MT 5'PFS UAA 3'PFS CAA (mixed)
RNA 1: B1 RNA 1
RNA 2: B1 RNA 2 with A27U, G28A, U53A
B30: target 2 MT 5'PFS UUU 3'PFS AUG (mixed)
RNA 1: B1 RNA 1
RNA 2: B1 RNA 2 with A27U, G28U, A29U, C52A, A54G
B31: target 2 MT 5'PFS GAG 3'PFS UCU (mixed)
RNA 1: B1 RNA 1
RNA 2: B1 RNA 2 with A27G, G28A, A29G, C52U, U53C, A54U
B32: target 2 MT 5'PFS GUC 3'PFS AAU (mixed)
RNA 1: B1 RNA 1
RNA 2: B1 RNA 2 with A27G, G28U, A29C, C52A, U53A, A54U
B33: target 2 MT 5'PFS GAG 3'PFS UCG (mixed)
RNA 1: B1 RNA 1
RNA 2: B1 RNA 2 with A27G, G28A, A29G, C52U, U53C, A54G
B34: target 1 insU 3' of 20,insA 3' of 17 (mixed)
RNA 1: CACCCGUGCAAAAAUGCAGGGGUCUAAAACUGAGCGGAUAACCUCUCUAUGG
RNA 2: GGGAAUGGAUCCACAUCUACGAAUUCGUACCAUUAGAAGAGGUUAUCCGCUCACCGAGAUCGGAAGAGCACACGU
B35: target 1 insG 3' of 4,insA 3' of 3 (mixed)
RNA 1: B34 RNA 1
RNA 2: GGGAAUGGAUCCACAUCUACGAAUUCGUACCAUAGAGAGGUUAUCCGCGUACACCGAGAUCGGAAGAGCACACGU
B36: target 1 C2A,U8A (mixed)
RNA 1: B34 RNA 1
RNA 2: GGGAAUGGAUCCACAUCUACGAAUUCGUACCAUAGAGAGGUUAACCGCUAACCGAGAUCGGAAGAGCACACGU

Changes are numbered by the printed parent chain. Numbers in names are those of the source.

The term Kd denotes a measure of binding affinity in units of concentration.

The data set deals with T1, EsCas13d, nuclease-dead. As to the kind of experiment: crRNA (strand 1, pre-loaded); Mg2+; 40 mM Tris-HCl pH 7.5, 150 mM NaCl, 6 mM MgCl2, 1 mM DTT, 0.1% Tween-20, 0.2 mg/ml BSA; 25 C; 10 min per concentration, then washed. The note with it: tags: His6-TwinStrep-SUMO cleaved; N-terminal SNAP kept (SNAP-Surface 488); label: 3' end held by stalled T7 RNA polymerase.
For the molecule B1, the affinity, expressed as Kd, was 7.6 ± 1.4 nM. For B2 the value was 11.7 ± 1.9 nM; for B3, about 27 nM; for B4, 16 ± 5 nM. The figure for B5 is 29 ± 5 nM; for B6 it is 8.8 ± 1.5 nM. For B7 the value was 9.4 ± 0.8 nM; for B8, 12.5 ± 2.1 nM; for B9, 6.8 ± 0.6 nM.

The molecule B10 registered a Kd of 5.6 ± 1.8 nM. The figure for B11 is 18.8 ± 3.1 nM. Molecule B12 yielded a Kd of 13 ± 1.7 nM.

Molecule B13 had a Kd of 3.9 ± 0.6 nM. The figure for B14 is 14 ± 4 nM. Molecule B15 yielded a Kd of 11.6 ± 1.9 nM. For B16 the value was 8 ± 0.8 nM.

Regarding B17, the affinity, expressed as Kd, was 6.5 ± 0.5 nM. The figure for B18 is 4.9 ± 0.8 nM; for B19 it is 4.5 ± 1 nM; for B20 it is 14.8 ± 2.4 nM. Molecule B21 gave a Kd of about 24 nM. The figure for B22 is 6.9 ± 0.8 nM.

For the molecule B23, the Kd turned out to be 16.8 ± 3.5 nM. In turn, B24 had a Kd of 32 ± 11 nM. For B25 the value was 43 ± 10 nM. For B26 the value was 9.7 ± 1.5 nM. For B27, binding was put at a Kd of 9.1 ± 1 nM. For B28 the value was 13 ± 3.2 nM; for B29, 2.4 ± 0.4 nM. The figure for B30 is 7.5 ± 0.9 nM; for B31 it is 16 ± 2.2 nM.

B32 gave a Kd of 12.8 ± 2.8 nM. Molecule B33 had a Kd of 10.7 ± 0.9 nM. For B34 the value was 27.3 ± 2.4 nM. On to B35, for which the Kd came out at 6.5 ± 0.5 nM. Against the preceding molecule, the Kd is about 4.2-fold lower. Turning to B36, binding was put at a Kd of 19.7 ± 0.8 nM.
